Measurements published in patent WO2008021263A2 (dated 2008).
Substitutions are numbered along the chain they refer to.

B1: 1D3 Fab (Fab, V domains shown)
VH: EVQLVQSGAEVKKPGASVKVSCKVSGYTLTKLSVHWVRQAPGKGLEWMGSFDPEDGETIYSQRFQGRVTMTEDTSTDTAYMELTSLRSEDTAVYYCATEGQWLVAYYGMDVWGQGTTVTVSS
VL: EIVLTQSPSSLSASVGDRVTITCRASQGISSALAWYQQKPGKAPKLLIYDASSLESGVPSRFSGSGSGTDFTLTISSLQPEDFATYYCQQFNSYPLTFGGGTKVEIK
notes: Fab of the 1D3 human monoclonal antibody; the constant parts are not; also called B-type Fab
B2: 1D3 IgG (antibody, V domains shown)
VH: B1 VH
VL: B1 VL
notes: Human monoclonal IgG; also called B-type IgG; B-type antibody
B3: 1H2 Fab (Fab, V domains shown)
VH: B1 VH with E1Q, L29F, T84S, T117M
VL: B1 VL
notes: Fab of the 1H2 human monoclonal antibody; the constant parts are not; also called B-type Fab
B4: 1H2 IgG (antibody, V domains shown)
VH: B1 VH with E1Q, L29F, T84S, T117M
VL: B1 VL
notes: as for B2

What was measured:
dimeric form of SDF-1α [1] = biological target: T1, dimeric form of SDF-1α (Felis catus (Cat) (Felis silvestris …, UniProt O62657 22-89)); test: SPR, both formats (SDF-1α on chip; Fab on anti-CH1 chip)
T1 construct: Same protein as m1; also called SDF-lα dimers; dimeric state of the SDF-1α antigen
T1 sequence (O62657 22-89 limits assumed): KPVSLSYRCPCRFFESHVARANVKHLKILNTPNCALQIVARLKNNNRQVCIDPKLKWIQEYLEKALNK

[2] = biological target: T2, SDF-1α (stromal cell-derived factor-1 alpha) (Felis catus (Cat) (Felis silvestris …, UniProt O62657 22-89)); test: SPR, SDF-1α with heparin in solution (Figure 7 legend: 1D3 IgG)
T2 construct: also called SDF-lα; SDF-I α
T2 sequence (O62657 22-89 limits assumed): as above

dimeric form of SDF-1α [3] = biological target: T1, dimeric form of SDF-1α; test: SPR, IgG immobilised on chip, SDF-1α flowed (Table VI, not shown)
[4] = biological target: SDF-FITC (FITC-labelled SDF-1α) (Felis catus (Cat) (Felis silvestris …, UniProt O62657 22-89, FITC label, site not stated)); test: fluorescence polarization time course with FITC-labelled SDF-1α (Figures 8A-8C)
Sequence of SDF-FITC (FITC-labelled SDF-1α) (Felis catus (Cat) (O62657 22-89 limits assumed): as above

[5] = biological target: T2, SDF-1α (stromal cell-derived factor-1 …); test: SPR, Fab captured on anti-CH1 chip, SDF-1α flowed (Table IV, not shown)
[6] = biological target: T2, SDF-1α (stromal cell-derived factor-1 …); test: SPR, time course after dilution of SDF-1α in buffers HBS-EP, HBS-P and HBS-N

Row | Binder | binding result (dimeric form of SDF-1α [1]) | binding result [2] | binding result (dimeric form of SDF-1α [3]) | binding result [4] | binding result [5] | binding result [6]
1 | B1 | binds | – | – | – | – | –
2 | B2 | – | binds | binds | binds | – | –
3 | B3 | binds | – | – | – | binds | –
4 | B4 | – | – | binds | binds | – | binds
